Experimental data taken from publication PMC7793584 (Science Advances, 2021).

B1: Hda2 (natural protein)
chain: MSRKNSKKLKVYYLPVTLTQFQKDLSEILISLHAKSFKASIIGEPQADAVNKPSGLPAGPETHPYPTLSQRQLTYIFDSNIRAIANHPSLLVDHYMPRQLLRMEPTESSIAGSHKFQVLNQLINSICFRDREGSPNEVIKCAIIAHSIKELDLLEGLILGKKFRTKRLSGTSLYNEKHKFPNLPTVDSTINKDGTPNSVSSTSSNSNSTSYTGYSKDDYDYSVKRNLKKRKINTDDWLFLATTKHLKHDQYLLANYDIDMIISFDPMLEVELPALQVLRNNANKDIPIIKLLVQNSPDHYLLDSEIKNSSVKSSHLSNNGHVDDSQEYEEIKSSLLYFLQARNAPVNNCEIDYIKLVKCCLEGKDCNNILPVLDLITLDEASKDSSDSGFWQPQLTKLQYSSTELPLWDGPLDIKTYQTELMHRAVIRLRDIQDEYAKGTVPLYEKRLNETQRQNQLDEIKNSVGLTFKKKQEVEKSINDSEKRLKHAMTESTKLQNKINHLLKNRQELENFNKLPSNTISSENHLEEGSALADKLKEYIDKNATLFNKLKELQQANAEKSKLNDELRSKYQIESSKAAESAQTLKILQESMKSLENEVNGPLTKFSTESLKKELERLQNDFQSLKARNKFLKNYITLMNRQYDLKNKNNVQVEKAAANGTRFRSTRSNTPNYT
B3: Hda1 (enzyme)
chain: MDSVMVKKEVLENPDHDLKRKLEENKEEENSLSTTSKSKRQVIVPVCMPKIHYSPLKTGLCYDVRMRYHAKIFTSYFEYIDPHPEDPRRIYRIYKILAENGLINDPTLSGVDDLGDLMLKIPVRAATSEEILEVHTKEHLEFIESTEKMSREELLKETEKGDSVYFNNDSYASARLPCGGAIEACKAVVEGRVKNSLAVVRPPGHHAEPQAAGGFCLFSNVAVAAKNILKNYPESVRRIMILDWDIHHGNGTQKSFYQDDQVLYVSLHRFEMGKYYPGTIQGQYDQTGEGKGEGFNCNITWPVGGVGDAEYMWAFEQVVMPMGREFKPDLVIISSGFDAADGDTIGQCHVTPSCYGHMTHMLKSLARGNLCVVLEGGYNLDAIARSALSVAKVLIGEPPDELPDPLSDPKPEVIEMIDKVIRLQSKYWNCFRRRHANSGCNFNEPINDSIISKNFPLQKAIRQQQQHYLSDEFNFVTLPLVSMDLPDNTVLCTPNISESNTIIIVVHDTSDIWAKRNVISGTIDLSSSVIIDNSLDFIKWGLDRKYGIIDVNIPLTLFEPDNYSGMITSQEVLIYLWDNYIKYFPSVAKIAFIGIGDSYSGIVHLLGHRDTRAVTKTVINFLGDKQLKPLVPLVDETLSEWYFKNSLIFSNNSHQCWKENESRKPRKKFGRVLRCDTDGLNNIIEERFEEATDFILDSFEEWSDEE

What was measured:
[1] = target: HDAC protomer complex (Hda1_(2)-Hda2-Hda3 heterotetrameric complex) (S. cerevisiae) (UniProt P53973); assay: cryo-EM structure
Hda1 [2] = target: B3; assay: SEC-MALS
Hda2 = target: B1; assay: cryo-EM structure
Hda1 [3] = target: B3; assay: cryo-EM structure
SEC-MALS = target: the molecule itself; assay: SEC-MALS

HDAC protomer complex (Hda1_(2)-Hda2-Hda3 heterotetrameric complex) (from UniProt P53973;Q06629;Q06623)
stoichiometry N [1]: 2

B1
binding result (Hda1 [2]): binds

B2: Hda3 (natural protein)
chain: MDLLRILDTKPIPTIVDATTLGISGNTSGDYWLPTTMSLYQKELTDQIVSLHYSDILRYFETSHYKEDVILESMKTMCLNGSLVATHPYLLIDHYMPKSLITRDVPAHLAENSGKFSVLRDLINLVQEYETETAIVCRPGRTMDLLEALLLGNKVHIKRYDGHSIKSKQKANDFSCTVHLFSSEGINFTKYPIKSKARFDMLICLDTTVDTSQKDIQYLLQYKRERKGLERYAPIVRLVAINSIDHCRLFFGKKFDKNSREYLENVTAAMVILRDRLGTLPPDLRPIYSQKLHYLVEWLENPTVPWPLPDIYPLKQYTSMDVERSLLTEVHFKKSDDQLEDAFSNCSKKRGRHGANKAASSTVAGIEDNITPSFYSTKRLKNDYYTNPLKQDMTQLTGITTADNSSNVNYHLSSGIITHKLIQSMGEVYMDICVQKQELDDYSCLDDLQNDHLKFFSNEDEKIIKEYETVLRTNNENLNRSHELEVENNLKFSQIETLEKDIETLKGSLMAQGETLSKLKDAFVKTDNVQDEIEKEERVSVSRDTEKKYMEQEIKRAVDAIRENEEETHKLNEKQNGLESELKLKFEKSEISTKELNEKIGFLKKELKLENDLNEELVGQLSKTMDNLENLTIPRVRTQNGNTKKKSRAKKPGNV
binding result (Hda2): binds | binding result (Hda1 [3]): binds

B3
stoichiometry N (SEC-MALS): 2
